Consider eight molecules from article PMC3176798, “Movement Protein Pns6 of Rice dwarf phytoreovirus Has Both ATPase and RNA Binding Activities”.

The target in series [1] is T1, His-Pns6 (Rice dwarf phytoreovirus (RDV), UniProt Q85438 1-509).
T1 sequence: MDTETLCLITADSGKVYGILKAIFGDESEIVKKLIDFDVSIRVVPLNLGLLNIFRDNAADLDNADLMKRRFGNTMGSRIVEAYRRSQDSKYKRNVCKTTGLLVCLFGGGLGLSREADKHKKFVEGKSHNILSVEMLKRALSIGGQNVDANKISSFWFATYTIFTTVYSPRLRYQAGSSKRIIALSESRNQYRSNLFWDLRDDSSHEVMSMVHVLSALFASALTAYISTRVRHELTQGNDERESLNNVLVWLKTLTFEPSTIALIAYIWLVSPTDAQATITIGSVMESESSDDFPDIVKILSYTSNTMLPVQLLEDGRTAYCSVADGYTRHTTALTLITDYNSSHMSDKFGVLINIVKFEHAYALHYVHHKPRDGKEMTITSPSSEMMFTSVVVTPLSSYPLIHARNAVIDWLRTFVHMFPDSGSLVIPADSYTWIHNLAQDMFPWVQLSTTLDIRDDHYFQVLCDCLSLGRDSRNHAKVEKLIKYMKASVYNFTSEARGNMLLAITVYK
In words: competition EMSA; vs labeled S3-5; equal to other dsRNAs; EMSA: 50 mM Tris-HCl pH 7.5, 50 mM NaCl, 10% glycerol, 20 min on ice; northwestern: 20 mM Tris-HCl pH 7.5, 50 mM NaCl, 0.1% Triton X-100, 1 mM DTT, 1 mM EDTA, 0.02% Ficoll 400 (renaturation and washes at 4 C), UV crosslinking after washing. The settings on record: protein: recombinant, tags: His (pET28a), blunt.

Series [2] has as its target T1, His-Pns6. In words: competition EMSA; vs labeled S3-5a; less than sense strands; EMSA: 50 mM Tris-HCl pH 7.5, 50 mM NaCl, 10% glycerol, 20 min on ice; northwestern: 20 mM Tris-HCl pH 7.5, 50 mM NaCl, 0.1% Triton X-100, 1 mM DTT, 1 mM EDTA, 0.02% Ficoll 400 (renaturation and washes at 4 C), UV crosslinking after washing. The settings on record: protein: recombinant; tags: His (pET28a); label: 32P 5' end when probe.

The target in series [3] is T1, His-Pns6. Briefly: northwestern blot; EMSA: 50 mM Tris-HCl pH 7.5, 50 mM NaCl, 10% glycerol, 20 min on ice; northwestern: 20 mM Tris-HCl pH 7.5, 50 mM NaCl, 0.1% Triton X-100, 1 mM DTT, 1 mM EDTA, 0.02% Ficoll 400 (renaturation and washes at 4 C), UV crosslinking after washing. As to conditions: protein: recombinant; tags: His (pET28a); label: 32P 5' end when probe; 3' overhang 2 nt (UU) on both strands, 19 bp.

For series [4], the target named is T1, His-Pns6. In words: competition EMSA; vs labeled S3-5a; highest; EMSA: 50 mM Tris-HCl pH 7.5, 50 mM NaCl, 10% glycerol, 20 min on ice; northwestern: 20 mM Tris-HCl pH 7.5, 50 mM NaCl, 0.1% Triton X-100, 1 mM DTT, 1 mM EDTA, 0.02% Ficoll 400 (renaturation and washes at 4 C), UV crosslinking after washing. As to conditions: protein: recombinant; tags: His (pET28a); label: 32P 5' end when probe.

The target in series [5] is T1, His-Pns6. Briefly: competition EMSA; vs labeled S3-5a; higher than antisense strands; EMSA: 50 mM Tris-HCl pH 7.5, 50 mM NaCl, 10% glycerol, 20 min on ice; northwestern: 20 mM Tris-HCl pH 7.5, 50 mM NaCl, 0.1% Triton X-100, 1 mM DTT, 1 mM EDTA, 0.02% Ficoll 400 (renaturation and washes at 4 C), UV crosslinking after washing. As to conditions: protein: recombinant; tags: His (pET28a); label: 32P 5' end when probe.

B1: S3m (dsRNA)
RNA 1: CAAUCAAUAUGCUCGCCCCA
RNA 2: UGGGGCGAGCAUAUUGAUUG
With B1, in the series with His-Pns6 [1], the binding result is “binds”. For the molecule AUCAGGAACCAAGCAAAACA (ssRNA) [S3-3a], the binding result with His-Pns6 [2] is “binds”.

B2: dsR (dsRNA)
RNA 1: UUCUCCGAACGUGUCACGUUU
RNA 2: ACGUGACACGUUCGGAGAAUU
For the molecule B2, in the series with His-Pns6 [3], the binding result was “binds”.

B3: S3-3 (dsRNA)
RNA 1: UGUUUUGCUUGGUUCCUGAU
RNA 2: AUCAGGAACCAAGCAAAACA
Take B3: the binding result in the series with His-Pns6 [1] is on record as “binds”.

On to AUUGUUCGCUCGAUUUUGCC (ssRNA) [S3-5a], for which the binding result with His-Pns6 [2] is on record as “binds”. Turning to GGCAAAAUCGAGCGAACAAU (ssRNA) [S3-5s], the binding result with His-Pns6 [4] is recorded as “binds”.

B4: S3-5 (dsRNA)
RNA 1: GGCAAAAUCGAGCGAACAAU
RNA 2: AUUGUUCGCUCGAUUUUGCC
Turning to B4, in the series with His-Pns6 [1] (label: 32P 5' end when probe), the binding result is “binds”.

Consider UGUUUUGCUUGGUUCCUGAU (ssRNA) [S3-3s], for which the binding result with His-Pns6 [5] is listed as “binds”.
